Assay in all cases: two-hybrid; LexA-Cdc1 bait (pBTM116 or pBTM116BN) with Gal4 activation domain-Cdc27 prey (pGAD2F-Cdc27) in S. cerevisiae CTY10-5d; ONPG liquid culture beta-galactosidase assay, mean of triplicates, as percent of wild-type Cdc1
Holding throughout (settings): partners not purified

The target of experiment [1] is T1, Cdc1-J1 (Schizosaccharomyces pombe, UniProt P87324 1-462, Thr-GlyValProLeuThr-Gly).
T1 construct: Cdc1, S. pombe, with a pentapeptide inserted after residue 141; source: yeast two-hybrid fusion, in S. cerevisiae CTY10-5d
T1 sequence (looked up): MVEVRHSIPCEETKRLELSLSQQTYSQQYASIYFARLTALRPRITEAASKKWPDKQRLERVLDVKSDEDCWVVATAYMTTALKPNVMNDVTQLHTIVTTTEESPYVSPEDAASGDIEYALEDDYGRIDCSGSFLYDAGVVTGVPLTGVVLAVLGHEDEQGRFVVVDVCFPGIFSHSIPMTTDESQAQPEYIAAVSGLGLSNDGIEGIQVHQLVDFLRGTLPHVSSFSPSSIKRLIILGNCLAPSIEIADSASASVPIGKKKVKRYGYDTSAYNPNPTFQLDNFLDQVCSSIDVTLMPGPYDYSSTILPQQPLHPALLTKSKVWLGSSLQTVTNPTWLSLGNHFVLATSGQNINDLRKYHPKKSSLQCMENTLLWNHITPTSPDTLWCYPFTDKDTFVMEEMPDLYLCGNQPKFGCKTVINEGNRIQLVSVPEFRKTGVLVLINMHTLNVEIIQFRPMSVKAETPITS

Experiment [2] deals with T2, Cdc1-J8 (Schizosaccharomyces pombe, UniProt P87324 1-462, Lys-GlyValProLeuLys-Pro).
T2 construct: Cdc1, S. pombe, with a pentapeptide inserted after residue 83; also called J19; source: yeast two-hybrid fusion, in S. cerevisiae CTY10-5d
T2 sequence (looked up): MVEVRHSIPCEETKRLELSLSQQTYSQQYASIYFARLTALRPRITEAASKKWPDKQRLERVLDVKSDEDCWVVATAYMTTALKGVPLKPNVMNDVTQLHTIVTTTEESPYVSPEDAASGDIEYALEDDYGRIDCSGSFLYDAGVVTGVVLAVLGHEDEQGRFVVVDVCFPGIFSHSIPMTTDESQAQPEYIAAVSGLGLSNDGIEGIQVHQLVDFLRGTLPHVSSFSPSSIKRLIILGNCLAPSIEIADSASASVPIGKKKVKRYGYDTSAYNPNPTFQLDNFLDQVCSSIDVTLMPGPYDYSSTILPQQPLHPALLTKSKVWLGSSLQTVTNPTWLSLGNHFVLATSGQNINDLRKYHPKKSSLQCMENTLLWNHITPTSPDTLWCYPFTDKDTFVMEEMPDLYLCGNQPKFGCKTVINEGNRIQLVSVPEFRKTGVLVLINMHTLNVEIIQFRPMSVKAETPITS

For experiment [3], the target named is T3, Cdc1-J9 (Schizosaccharomyces pombe, UniProt P87324 1-462, Met-ArgGlyThrProMet-Thr).
T3 construct: Cdc1, S. pombe, with a pentapeptide inserted after residue 174; source: yeast two-hybrid fusion, in S. cerevisiae CTY10-5d
T3 sequence (looked up): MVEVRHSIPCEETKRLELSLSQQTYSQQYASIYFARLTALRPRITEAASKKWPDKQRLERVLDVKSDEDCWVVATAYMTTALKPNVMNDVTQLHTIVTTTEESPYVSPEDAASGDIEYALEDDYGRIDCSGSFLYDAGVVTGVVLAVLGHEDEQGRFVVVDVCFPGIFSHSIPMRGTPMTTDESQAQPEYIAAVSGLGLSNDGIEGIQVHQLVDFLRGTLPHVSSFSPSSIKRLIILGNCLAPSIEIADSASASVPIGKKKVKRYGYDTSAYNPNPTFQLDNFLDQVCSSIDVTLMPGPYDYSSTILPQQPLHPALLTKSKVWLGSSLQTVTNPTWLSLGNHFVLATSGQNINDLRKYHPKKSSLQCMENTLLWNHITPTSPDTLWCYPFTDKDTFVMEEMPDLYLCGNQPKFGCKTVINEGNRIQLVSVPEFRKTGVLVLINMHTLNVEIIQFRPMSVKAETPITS

For experiment [4], the target named is T4, Cdc1-E4 (Schizosaccharomyces pombe, UniProt P87324 1-462, Cys-GlyValProProCys-Glu).
T4 construct: Cdc1, S. pombe, with a pentapeptide inserted after residue 10; source: yeast two-hybrid fusion, in S. cerevisiae CTY10-5d
T4 sequence (looked up): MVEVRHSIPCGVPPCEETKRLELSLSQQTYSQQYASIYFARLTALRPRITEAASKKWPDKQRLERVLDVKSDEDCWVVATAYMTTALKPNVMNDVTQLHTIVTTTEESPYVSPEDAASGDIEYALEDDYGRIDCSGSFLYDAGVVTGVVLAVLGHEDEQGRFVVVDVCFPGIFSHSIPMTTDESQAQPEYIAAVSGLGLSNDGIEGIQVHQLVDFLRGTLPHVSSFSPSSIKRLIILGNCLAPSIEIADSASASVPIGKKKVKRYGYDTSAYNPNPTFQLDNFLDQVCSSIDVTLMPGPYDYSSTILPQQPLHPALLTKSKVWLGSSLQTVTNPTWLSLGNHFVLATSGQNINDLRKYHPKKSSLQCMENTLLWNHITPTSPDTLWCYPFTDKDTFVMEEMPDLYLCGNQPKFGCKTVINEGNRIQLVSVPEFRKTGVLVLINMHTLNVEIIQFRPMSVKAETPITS

B1: Cdc27 (fission yeast DNA polymerase delta C-subunit) (natural protein, Schizosaccharomyces pombe, UniProt P30261 1-372, looked up)
chain: MEEWRNFLDIKVINESSLVTVDNLSLQLDISSEKAQEYLNMFYQGNDFLYPIYLIHGQPIDDEINLEIDEESQPISNFPVLQYILCDKSSLQEKQSRLKSGYKTVIFALSSAPLSDFDELLPAVYEIREKDVLYKKEDADKYGFIFNENSVPRVLKKAPSTHSPQLSVPSKTSTIDKTDTRSTEKTKGKDIFSNARNQKGNSSRKNKKAPLENHKEKEPLLPKEEKLSEQAKRERDDLKNIMQLEDESVSTTSVHDSEDDNLDSNNFQLEIGTEAKSAAPDEPQEIIKSVSGGKRRGKRKVKKYATTKDEEGFLVTKEEEVWESFSEDENISTGTSNVVRNKPTTVNIATKKKNTAQSKPQQKSIMSFFGKK
notes: DNA polymerase delta C-subunit Cdc27, S. pombe; prey plasmid pGAD2F-Cdc27; also called pGAD2F-Cdc27; source: yeast two-hybrid fusion, in S. cerevisiae CTY10-5d
As for B1, the “two-hybrid beta-galactosidase activity, % of wild-type Cdc1” value in experiment [1] was below 1%; in experiment [2], 128%; in experiment [3] it was 102%; in experiment [4] it was 62%.

(Values after article PMC2734569, “Functional mapping of the fission yeast DNA polymerase δ B-subunit Cdc1 by site-directed and random pentapeptide insertion mutagenesis” (BMC Molecular Biology, 2009).)
